The text below walks through data of patent EP1759709B1 (Elan Pharmaceuticals Inc., dated 2013).

The target in this experiment is T1, human α4β1 integrin (human, UniProt P13612 34-1032; P05556 21-798).
T1 construct: whole, on cells; also called VLA-4; alpha-4-beta-1 integrin
The experiment in a line: ELISA on L cells expressing α4β1 integrin; crude supernatants.

B1: reshaped human 21.6 antibody (La + Ha) (antibody, V domains shown)
VH: QVQLVQSGAEVKKPGASVKVSCKASGFNIKDTYIHWVRQAPGQRLEWMGRIDPANGYTKYDPKFQGRVTITADTSASTAYMELSSLRSEDTAVYYCAREGYYGNYGVYAMDYWGQGTLVTVSS
VL: DIQMTQSPSSLSASVGDRVTITCKTSQDINKYMAWYQQTPGKAPRLLIHYTSALQPGIPSRFSGSGSGRDYTFTISSLQPEDIATYYCLQYDNLWTFGQGTKVEIK
notes: Expressed in Cos cells
In the case of B1, the binding result was “binds”.

B2: reshaped human 21.6 antibody (Lb + Ha) (antibody, V domains shown)
VH: QVQLVQSGAEVKKPGASVKVSCKASGFNIKDTYIHWVRQAPGQRLEWMGRIDPANGYTKYDPKFQGRVTITADTSASTAYMELSSLRSEDTAVYYCAREGYYGNYGVYAMDYWGQGTLVTVSS
VL: DIQMTQSPSSLSASVGDRVTITCKTSQDINKYMAWYQQTPGKAPRLLIYYTSALQPGIPSRFSGSGSGRDYTFTISSLQPEDIATYYCLQYDNLWTFGQGTKVEIK
notes: Human kappa / human gamma-1 constant regions; tested as crude Cos supernatant; Lb is therefore built here from La with the stated change; also called version Lb in combination with version Ha
Turning to B2, the binding result was “binds”.
